# In patent US20050037969A1 (ARBOR VITA, published 2005):
# Ends that are not written are not given here. * marks the point of attachment. Biotin = O=C1N[C@H]2[C@H](CS[C@H]2CCCCC(=O)*)N1
# T1: GST-TAX-IP43 PDZ domain fusion protein (human, UniProt Q13884 109-180)
# T1 construct: also called TAX43; not shown: glutathione S-transferase encoded by vector pGEX-3X (Pharmacia)
# T1 sequence: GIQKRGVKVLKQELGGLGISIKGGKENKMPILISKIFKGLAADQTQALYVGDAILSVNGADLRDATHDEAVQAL
# T2: GST-PTN-4 PDZ domain fusion protein (Homo sapiens (Human), UniProt P29074 517-605)
# T2 construct: also called protein-tyrosine phosphatase meg1; not shown: glutathione S-transferase encoded by vector pGEX-3X (Pharmacia)
# T2 sequence: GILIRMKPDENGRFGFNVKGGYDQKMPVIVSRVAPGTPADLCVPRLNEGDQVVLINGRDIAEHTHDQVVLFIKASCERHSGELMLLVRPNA
# T3: GST-MPP1 PDZ domain fusion protein (Homo sapiens (Human), UniProt Q00013 67-152)
# T3 construct: also called p55; 55 Kd erythrocyte membrane protein; not shown: glutathione S-transferase encoded by vector pGEX-3X (Pharmacia)
# T3 sequence: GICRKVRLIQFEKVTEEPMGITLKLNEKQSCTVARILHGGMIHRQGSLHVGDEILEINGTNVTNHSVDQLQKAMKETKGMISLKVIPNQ
# T4: GST-prIL16 fusion protein (PDZ domains 1-2) (Homo sapiens (Human), UniProt Q14005 1111-1324)
# T4 construct: also called putative interleukin 16 precursor; not shown: glutathione S-transferase encoded by vector pGEX-3X (Pharmacia)
# T4 sequence: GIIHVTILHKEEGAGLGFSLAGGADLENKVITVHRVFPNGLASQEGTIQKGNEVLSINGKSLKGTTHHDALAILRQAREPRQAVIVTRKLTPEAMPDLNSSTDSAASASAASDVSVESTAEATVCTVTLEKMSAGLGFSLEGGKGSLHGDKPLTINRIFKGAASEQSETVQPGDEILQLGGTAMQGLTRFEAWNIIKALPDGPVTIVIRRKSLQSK
# T5: GST-AF6 PDZ domain fusion protein (Homo sapiens (Human), UniProt P55196 1001-1093)
# T5 construct: also called af-6 protein; not shown: glutathione S-transferase encoded by vector pGEX-3X (Pharmacia)
# T5 sequence: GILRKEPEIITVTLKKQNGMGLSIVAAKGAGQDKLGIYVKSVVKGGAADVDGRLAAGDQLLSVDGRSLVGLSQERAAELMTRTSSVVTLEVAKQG
# T6: GST-RGS12 PDZ domain fusion protein (human, UniProt O14924 17-85)
# T6 construct: also called human regulator of G-protein signalling 12; not shown: glutathione S-transferase encoded by vector pGEX-3X (Pharmacia)
# T6 sequence: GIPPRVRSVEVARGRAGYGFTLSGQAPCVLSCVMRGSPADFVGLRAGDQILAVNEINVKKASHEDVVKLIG
# T7: GST-PDZK1 fusion protein (PDZ domains 2-4) (Homo sapiens, UniProt Q5T2W1 134-457)
# T7 construct: not shown: glutathione S-transferase encoded by vector pGEX-3X (Pharmacia)
# T7 sequence: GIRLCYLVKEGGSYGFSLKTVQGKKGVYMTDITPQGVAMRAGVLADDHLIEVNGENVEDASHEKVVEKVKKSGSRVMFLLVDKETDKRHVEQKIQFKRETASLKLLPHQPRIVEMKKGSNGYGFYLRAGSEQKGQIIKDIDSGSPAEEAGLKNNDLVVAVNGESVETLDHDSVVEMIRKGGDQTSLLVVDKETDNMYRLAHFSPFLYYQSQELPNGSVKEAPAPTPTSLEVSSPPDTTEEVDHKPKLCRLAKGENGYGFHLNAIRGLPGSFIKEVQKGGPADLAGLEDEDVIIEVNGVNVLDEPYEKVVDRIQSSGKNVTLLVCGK
# T8: KIAA0807 (PDZ domain)-GST fusion protein (human, UniProt Q6P0Q8 1104-1192)
# T8 construct: also called K807; KIAA807; not shown: glutathione S-transferase encoded by vector pGEX-3X (Pharmacia)
# T8 sequence: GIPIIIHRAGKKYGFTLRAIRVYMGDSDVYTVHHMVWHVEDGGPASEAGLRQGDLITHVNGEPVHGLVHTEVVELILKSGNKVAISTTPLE
# T9: TAX-IP2L PDZ-GST fusion protein (Homo sapiens (Human), UniProt Q8TF64 107-197)
# T9 construct: Order of GST and PDZ part and limits not seen in the excerpts
# T9 sequence: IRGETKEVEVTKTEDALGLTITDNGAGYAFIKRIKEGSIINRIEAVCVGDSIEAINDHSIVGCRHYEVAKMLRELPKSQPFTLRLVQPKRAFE
# T10: MINT3 PDZ-GST fusion protein
# T10 construct: Order of GST and PDZ part and limits not seen in the excerpts
# T10 chain: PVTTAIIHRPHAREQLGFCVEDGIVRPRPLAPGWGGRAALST
# T11: K858 PDZ-GST fusion protein (Homo sapiens (Human), UniProt Q8WWI1 1038-1131)
# T11 construct: Order of GST and PDZ part and limits not seen in the excerpts
# T11 sequence: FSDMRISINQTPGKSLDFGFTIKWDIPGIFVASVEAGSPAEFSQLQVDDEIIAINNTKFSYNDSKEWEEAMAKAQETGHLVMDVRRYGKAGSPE
# T12: ConEn PDZ-GST fusion protein (Homo sapiens (Human), UniProt Q969H4 193-287)
# T12 construct: The label ConEn is not explained in the excerpts
# T12 sequence: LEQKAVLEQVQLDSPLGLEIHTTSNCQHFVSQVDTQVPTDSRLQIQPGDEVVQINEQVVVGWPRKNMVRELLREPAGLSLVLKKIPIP
# Biological target: T1, GST-TAX-IP43 PDZ domain fusion protein
# Test: A/G assays
row,binding result,Binder
1,no binding,"Biotin-TSGTGHNQTRALRASESGI (also called CD97 (CD55L)) [CD97 C-terminal peptide AA14L, biotinylated]"
2,no binding,"Biotin-SPQPDSTDNDDYDDISAA [CD6 C-terminal peptide AA6L, biotinylated]"

# Biological target: T2, GST-PTN-4 PDZ domain fusion protein
# Test: A/G assays
row,binding result,Binder
1,no binding,"Biotin-TSGTGHNQTRALRASESGI (also called CD97 (CD55L)) [CD97 C-terminal peptide AA14L, biotinylated]"
2,no binding,"Biotin-SPQPDSTDNDDYDDISAA [CD6 C-terminal peptide AA6L, biotinylated]"

# Biological target: T3, GST-MPP1 PDZ domain fusion protein
# Test: A/G assays
row,binding result,Binder
1,no binding,"Biotin-TSGTGHNQTRALRASESGI (also called CD97 (CD55L)) [CD97 C-terminal peptide AA14L, biotinylated]"
2,no binding,"Biotin-SPQPDSTDNDDYDDISAA [CD6 C-terminal peptide AA6L, biotinylated]"

# Biological target: T4, GST-prIL16 fusion protein (PDZ domains …)
# Test: A/G assays
row,binding result,Binder
1,no binding,"Biotin-TSGTGHNQTRALRASESGI (also called CD97 (CD55L)) [CD97 C-terminal peptide AA14L, biotinylated]"
2,no binding,"Biotin-SPQPDSTDNDDYDDISAA [CD6 C-terminal peptide AA6L, biotinylated]"

# Biological target: T5, GST-AF6 PDZ domain fusion protein
# Test: A/G assays
row,binding result,Binder
1,no binding,"Biotin-TSGTGHNQTRALRASESGI (also called CD97 (CD55L)) [CD97 C-terminal peptide AA14L, biotinylated]"
2,no binding,"Biotin-SPQPDSTDNDDYDDISAA [CD6 C-terminal peptide AA6L, biotinylated]"

# Biological target: T6, GST-RGS12 PDZ domain fusion protein
# Test: A/G assays
row,binding result,Binder
1,no binding,"Biotin-TSGTGHNQTRALRASESGI (also called CD97 (CD55L)) [CD97 C-terminal peptide AA14L, biotinylated]"
2,no binding,"Biotin-SPQPDSTDNDDYDDISAA [CD6 C-terminal peptide AA6L, biotinylated]"

# Biological target: T7, GST-PDZK1 fusion protein (PDZ domains …)
# Test: A/G assays
row,binding result,Binder
1,no binding,"Biotin-TSGTGHNQTRALRASESGI (also called CD97 (CD55L)) [CD97 C-terminal peptide AA14L, biotinylated]"
2,no binding,"Biotin-SPQPDSTDNDDYDDISAA [CD6 C-terminal peptide AA6L, biotinylated]"

# Biological target: T13, GST-TIAM1 PDZ domain fusion protein (Homo sapiens (Human), UniProt Q13009 845-931)
# T13 construct: also called TLAM1; T-lymphoma invasion and metastasis inducing protein 1; not shown: glutathione S-transferase encoded by vector pGEX-3X (Pharmacia)
# Test: A/G assays
# T13 sequence (Q13009 other isoform, or with tags, fused parts or gaps): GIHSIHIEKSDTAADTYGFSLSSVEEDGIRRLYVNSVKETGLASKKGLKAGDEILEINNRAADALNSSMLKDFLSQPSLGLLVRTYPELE
row,binding result,Binder
1,no binding,"Biotin-TSGTGHNQTRALRASESGI (also called CD97 (CD55L)) [CD97 C-terminal peptide AA14L, biotinylated]"
2,no binding,"Biotin-SPQPDSTDNDDYDDISAA [CD6 C-terminal peptide AA6L, biotinylated]"

# Biological target: T8, KIAA0807 (PDZ domain)-GST fusion protein
# Test: A/G assays
row,binding result,Binder
1,no binding,"Biotin-TSGTGHNQTRALRASESGI (also called CD97 (CD55L)) [CD97 C-terminal peptide AA14L, biotinylated]"
2,no binding,"Biotin-SPQPDSTDNDDYDDISAA [CD6 C-terminal peptide AA6L, biotinylated]"

# Biological target: T9, TAX-IP2L PDZ-GST fusion protein
# Test: A/G assays
row,binding result,Binder
1,no binding,"Biotin-TSGTGHNQTRALRASESGI (also called CD97 (CD55L)) [CD97 C-terminal peptide AA14L, biotinylated]"
2,no binding,"Biotin-SPQPDSTDNDDYDDISAA [CD6 C-terminal peptide AA6L, biotinylated]"

# Biological target: T10, MINT3 PDZ-GST fusion protein
# Test: A/G assays
row,binding result,Binder
1,no binding,"Biotin-TSGTGHNQTRALRASESGI (also called CD97 (CD55L)) [CD97 C-terminal peptide AA14L, biotinylated]"
2,no binding,"Biotin-SPQPDSTDNDDYDDISAA [CD6 C-terminal peptide AA6L, biotinylated]"

# Biological target: T14, PICK1 PDZ-GST fusion protein (Bos taurus (Bovine), UniProt Q2T9M1 17-105)
# T14 construct: Order of GST and PDZ part and limits not seen in the excerpts
# Test: A/G assays
# T14 sequence (Q2T9M1 other isoform, or with tags, fused parts or gaps limits assumed): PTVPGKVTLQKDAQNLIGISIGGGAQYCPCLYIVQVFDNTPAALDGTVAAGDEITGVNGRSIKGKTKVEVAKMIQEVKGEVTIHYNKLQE
row,binding result,Binder
1,no binding,"Biotin-TSGTGHNQTRALRASESGI (also called CD97 (CD55L)) [CD97 C-terminal peptide AA14L, biotinylated]"
2,no binding,"Biotin-SPQPDSTDNDDYDDISAA [CD6 C-terminal peptide AA6L, biotinylated]"

# Biological target: T15, K316 PDZ-GST fusion protein (Homo sapiens (Human), UniProt Q14CM0 72-159)
# T15 construct: Order of GST and PDZ part and limits not seen in the excerpts
# Test: A/G assays
# T15 sequence (Q14CM0 72-159 limits assumed): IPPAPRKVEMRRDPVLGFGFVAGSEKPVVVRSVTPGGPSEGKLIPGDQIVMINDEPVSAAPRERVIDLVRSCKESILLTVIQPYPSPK
row,binding result,Binder
1,no binding,"Biotin-TSGTGHNQTRALRASESGI (also called CD97 (CD55L)) [CD97 C-terminal peptide AA14L, biotinylated]"
2,no binding,"Biotin-SPQPDSTDNDDYDDISAA [CD6 C-terminal peptide AA6L, biotinylated]"

# Biological target: T11, K858 PDZ-GST fusion protein
# Test: A/G assays
row,binding result,Binder
1,no binding,"Biotin-TSGTGHNQTRALRASESGI (also called CD97 (CD55L)) [CD97 C-terminal peptide AA14L, biotinylated]"
2,no binding,"Biotin-SPQPDSTDNDDYDDISAA [CD6 C-terminal peptide AA6L, biotinylated]"

# Biological target: T12, ConEn PDZ-GST fusion protein
# Test: A/G assays
row,binding result,Binder
1,no binding,"Biotin-TSGTGHNQTRALRASESGI (also called CD97 (CD55L)) [CD97 C-terminal peptide AA14L, biotinylated]"
2,no binding,"Biotin-SPQPDSTDNDDYDDISAA [CD6 C-terminal peptide AA6L, biotinylated]"

# Biological target: T16, NSP PDZ-GST fusion protein (Homo sapiens (Human), UniProt Q92743 370-466)
# T16 construct: The label NSP is not explained in the excerpts
# Test: A/G assays
# T16 sequence (Q92743 other isoform, or with tags, fused parts or gaps limits assumed): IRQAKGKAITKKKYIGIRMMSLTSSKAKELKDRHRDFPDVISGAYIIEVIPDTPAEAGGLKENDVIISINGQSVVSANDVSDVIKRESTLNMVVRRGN
row,binding result,Binder
1,no binding,"Biotin-TSGTGHNQTRALRASESGI (also called CD97 (CD55L)) [CD97 C-terminal peptide AA14L, biotinylated]"
2,no binding,"Biotin-SPQPDSTDNDDYDDISAA [CD6 C-terminal peptide AA6L, biotinylated]"
